According to patent publication US20230203202A1 (DRAGONFLY THERAPEUTICS, published 2023):

Experiments:
[1] = target: T1, human 5T4 on the cell surface (human, UniProt Q13641 32-420); experiment: cell-based or functional assay
T1 sequence (looked up): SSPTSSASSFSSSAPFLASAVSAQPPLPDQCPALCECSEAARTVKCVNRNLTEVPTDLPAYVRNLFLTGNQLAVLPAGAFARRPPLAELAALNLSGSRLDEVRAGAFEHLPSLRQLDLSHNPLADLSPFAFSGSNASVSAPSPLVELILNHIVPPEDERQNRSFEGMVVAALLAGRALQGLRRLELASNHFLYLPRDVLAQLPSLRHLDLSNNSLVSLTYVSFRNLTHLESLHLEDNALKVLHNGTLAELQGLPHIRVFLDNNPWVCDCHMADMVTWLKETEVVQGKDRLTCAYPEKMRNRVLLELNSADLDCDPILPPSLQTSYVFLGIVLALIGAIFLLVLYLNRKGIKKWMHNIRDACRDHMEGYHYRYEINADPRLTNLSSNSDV

[2] = target: T2, human 5T4 (SPR and epitope mapping, construct not stated) (human, UniProt Q13641 32-355, limits assumed); experiment: SPR, h5T4 binding; sample stressed in HST pH 6, 7 days 50 °C
T2 construct: also called h5T4
T2 sequence (looked up): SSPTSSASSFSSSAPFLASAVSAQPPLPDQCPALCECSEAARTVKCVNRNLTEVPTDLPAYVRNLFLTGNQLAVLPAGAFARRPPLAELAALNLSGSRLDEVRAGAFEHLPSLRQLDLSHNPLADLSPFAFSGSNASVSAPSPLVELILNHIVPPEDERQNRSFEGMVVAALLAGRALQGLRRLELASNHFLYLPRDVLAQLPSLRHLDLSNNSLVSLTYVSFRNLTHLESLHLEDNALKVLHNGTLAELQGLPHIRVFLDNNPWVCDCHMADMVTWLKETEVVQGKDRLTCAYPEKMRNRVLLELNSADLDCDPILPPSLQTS

[3] = target: T1, human 5T4 on the cell surface; experiment: flow cytometry on 786-O cells (18,000 5T4 per cell)
[4] = target: T1, human 5T4 on the cell surface; experiment: flow cytometry on HT29 cells (5,000 5T4 per cell)
[5] = target: T2, human 5T4 (SPR and epitope mapping, …); experiment: SPR, h5T4 binding; sample stressed in Tris pH 9, 7 days 40 °C
[6] = target: T1, human 5T4 on the cell surface; experiment: flow cytometry on H292 cells (12,000 5T4 per cell)
[7] = target: T1, human 5T4 on the cell surface; experiment: cell-based or functional assay; remark: listed apart in the source
[8] = target: T1, human 5T4 on the cell surface; experiment: flow cytometry on FaDu cells (22,000 5T4 per cell)
[9] = target: T1, human 5T4 on the cell surface; experiment: flow cytometry on H1703 cells (15,000 5T4 per cell)
[10] = target: T3, human NKG2D (recombinant, construct not stated) (human, UniProt P26718 78-216, limits assumed); experiment: SPR, kinetics fit
T3 construct: also called hNKG2D
T3 sequence (looked up): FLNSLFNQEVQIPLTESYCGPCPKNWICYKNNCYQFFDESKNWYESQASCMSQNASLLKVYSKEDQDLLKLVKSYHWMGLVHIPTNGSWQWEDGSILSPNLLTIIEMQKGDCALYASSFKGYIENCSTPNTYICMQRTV

[11] = target: T2, human 5T4 (SPR and epitope mapping, …); experiment: SPR, kinetics fit
Human CD16aV = target: T4, Human CD16aV (human, UniProt P08637 17-208); experiment: SPR, kinetics fit
T4 construct: position 158 counts on the mature protein
T4 sequence (P08637 17-208 F176V): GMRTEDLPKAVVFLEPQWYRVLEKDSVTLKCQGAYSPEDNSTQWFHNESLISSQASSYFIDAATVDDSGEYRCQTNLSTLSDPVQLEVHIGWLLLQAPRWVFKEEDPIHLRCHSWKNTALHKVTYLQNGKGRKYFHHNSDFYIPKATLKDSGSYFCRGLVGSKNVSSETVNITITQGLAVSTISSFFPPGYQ

cynomolgus 5T4 = target: T5, cynomolgus 5T4 (cynomolgus monkey, UniProt Q4R8Y9 32-355, limits assumed); experiment: SPR
T5 construct: also called Cynomolgus monkey 5T4
T5 sequence (looked up): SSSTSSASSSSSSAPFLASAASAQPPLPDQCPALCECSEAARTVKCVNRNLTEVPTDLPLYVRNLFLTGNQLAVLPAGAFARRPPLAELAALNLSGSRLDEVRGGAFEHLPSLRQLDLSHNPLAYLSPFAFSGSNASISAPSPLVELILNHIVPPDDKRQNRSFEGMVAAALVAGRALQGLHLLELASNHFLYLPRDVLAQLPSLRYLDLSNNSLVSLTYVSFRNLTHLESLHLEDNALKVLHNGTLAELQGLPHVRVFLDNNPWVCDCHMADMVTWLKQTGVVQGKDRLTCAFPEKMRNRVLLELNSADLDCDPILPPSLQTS
Description: Briefly, SPR was performed using a Biacore 8K instrument at physiological temperature of 37° C. Briefly, human Fc specific antibodies were covalently immobilized at a density of about 8000-10000 resonance units (RU) on carboxy methyl dextran matrix of a CM5 biosensor chip to create an anti-hFc IgG chip. Samples were injected on the anti-hFc IgG chip at a flow rate of 10 μL/min for 60 seconds. Protein was serially diluted (300 nM-0.14 nM) in three-fold dilutions with running buffer and injected at a flow rate of 30 μl/min over the captured test articles. Association was monitored for 240-300 seconds, and dissociation was monitored for 300-900 seconds. Surfaces were regenerated between cycles with three pulses of 10 mM glycine-HCl (pH 1.7) injected for 20 seconds at 100 μL/min.

- NK cell-mediated lysis of 786-O cells (DELFIA), EC50 [1]: 0.19 nM
- NK cell-mediated lysis of BT474 cells (DELFIA), EC50 [1]: 0.14 nM
- NK cell-mediated lysis of Detroit 562 cells (DELFIA), EC50 [1]: 0.23 nM
- NK cell-mediated lysis of FaDu cells (DELFIA), EC50 [1]: 0.19 nM
- NK cell-mediated lysis of H292 cells (DELFIA), EC50 [1]: 0.1 nM
- NK cell-mediated lysis of H1703 cells (DELFIA), EC50 [1]: 0.14 nM
- NK cell-mediated lysis of H1975 cells (DELFIA), EC50 [1]: 0.29 nM
- NK cell-mediated lysis of HCC4006 cells (DELFIA), EC50 [1]: 0.24 nM
- NK cell-mediated lysis of HCT116 cells (DELFIA), EC50 [1]: 0.097 nM
- NK cell-mediated lysis of HT29 cells (DELFIA), EC50 [1]: 0.42 nM
- NK cell-mediated lysis of KYSE-30 cells (DELFIA), EC50 [1]: 0.072 nM
- Kd [2]: 7.6 nM
- koff [2]: 0.00088 s⁻¹
- kon [2]: 110000 M⁻¹ s⁻¹
- EC50 [3]: 2.7 nM
- EC50 [4]: 4.1 nM
- koff [5]: 0.0016 s⁻¹
- kon [5]: 110000 M⁻¹ s⁻¹
- EC50 [6]: 1.5 nM
- long-term NK cell-mediated inhibition of HCT 116 cells (Incucyte, 72 h), EC50 [7]: 0.16 nM
- long-term NK cell-mediated inhibition of HT-29 cells (Incucyte, 72 h), EC50 [7]: 1.3 nM
- long-term NK cell-mediated inhibition of KYSE-30 cells (Incucyte, 72 h), EC50 [7]: 0.087 nM
- long-term NK cell-mediated inhibition of NCI-H292 cells (Incucyte, 72 h), EC50 [7]: 0.37 nM
- EC50 [8]: 7.1 nM
- EC50 [9]: 2.6 nM
- Kd [10]: 370 nM
- koff [10]: 0.088 s⁻¹
- kon [10]: 240000 M⁻¹ s⁻¹
- Kd [11]: 6.1 nM
- koff [11]: 0.00077 s⁻¹
- kon [11]: 130000 M⁻¹ s⁻¹
- Kd (Human CD16aV): 112 nM
- koff (Human CD16aV): 0.017 s⁻¹
- kon (Human CD16aV): 150000 M⁻¹ s⁻¹
- Kd (cynomolgus 5T4): 8.3 nM
B1: AB1310/AB1783-TriNKET® (bispecific antibody, human IgG1, kappa)
chain: DIQLTQSPSSLSASVGDRVTITCRASQSVTTSNYNYMHWFQQKPGKAPKLLIKFASNLESGVPSRFSGSGSGTDFTLTISSLQPEDFATYYCQHSWEIPWTFGCGTKVEIKGGGGSGGGGSGGGGSGGGGSEVQLVESGGGLVKPGGSLRLSCAASRFTFSDFGMHWVRQAPGKCLEWVSYISSGSSTIYYADSVKGRFTISRDNAKNSLYLQMNSLRAEDTAVYYCASSQSYYRGTLDYWGQGTTVTVSSASDKTHTCPPCPAPELLGGPSVFLFPPKPKDTLMISRTPEVTCVVVDVSHEDPEVKFNWYVDGVEVHNAKTKPREEQYNSTYRVVSVLTVLHQDWLNGKEYKCKVSNKALPAPIEKTISKAKGQPREPRVYTLPPCRDELTKNQVSLTCLVKGFYPSDIAVEWESNGQPENNYKTTPPVLVSDGSFTLYSKLTVDKSRWQQGNVFSCSVMHEALHNHYTQKSLSLSPG
heavy: EVQLVESGGGLVKPGGSLRLSCAASGFTFSSYSMNWVRQAPGKGLEWVSSISSSSSYIYYADSVKGRFTISRDNAKNSLYLQMNSLRAEDTAVYYCARGAPIGAAAGWFDPWGQGTLVTVSSASTKGPSVFPLAPSSKSTSGGTAALGCLVKDYFPEPVTVSWNSGALTSGVHTFPAVLQSSGLYSLSSVVTVPSSSLGTQTYICNVNHKPSNTKVDKKVEPKSCDKTHTCPPCPAPELLGGPSVFLFPPKPKDTLMISRTPEVTCVVVDVSHEDPEVKFNWYVDGVEVHNAKTKPREEQYNSTYRVVSVLTVLHQDWLNGKEYKCKVSNKALPAPIEKTISKAKGQPREPQVCTLPPSRDELTENQVSLTCLVKGFYPSDIAVEWESNGQPENNYKTTPPVLDSDGSFFLYSWLTVDKSRWQQGNVFSCSVMHEALHNHYTQKSLSLSPG
light: DIQMTQSPSSVSASVGDRVTITCRASQGISSWLAWYQQKPGKAPKLLIYAASSLQSGVPSRFSGSGSGTDFTLTISSLQPEDFATYYCQQGVSFPRTFGGGTKVEIKRTVAAPSVFIFPPSDEQLKSGTASVVCLLNNFYPREAKVQWKVDNALQSGNSQESVTEQDSKDSTYSLSSTLTLSKADYEKHKVYACEVTHQGLSSPVTKSFNRGEC
notes: also called AB1310-TriNKET®; AB1783 10F10 F3′ LH H(T62S) CHO opt
